Measured values as given in paper PMC4456219.
Blank lines part the entries; values can stand above or below the molecule they belong to.

Experiments:
[1] = target: MBP-Vps24-2-ssrA (Saccharomyces cerevisiae) (UniProt P36095)
[2] = target: mixed Vps4 hexamer of full-length Vps4^CF and Vps4^(CF 206C ΔMIT) (Saccharomyces cerevisiae) (UniProt P52917); experiment: cross-linking

HDX-MS: unfolded proportion of the MBP peptide 347-360 at 10, 30 and 60 s [1]: 30%
Molecule: ClpX (from UniProt P0A6H1 1-424) (enzyme)

cross-linking efficiency relative to Vps24-2^136C [2]: 60%
B1: Vps24-2^92C (I92C single cysteine mutant of Vps24-2) (protein)
chain: MDYIKKAIWGPDPKEQQRRIRSVLRKNGRNIEKSLRELTVLQNKTQQLIKKSAKKNDVRTVRLYAKELYQINKQYDRMYTSRAQLDSVRMKCDEAIRMNTLSNQMADSAGLMREVNSLVRLPQLRNTMIELEKELMKSGIISEMVDDTMESVGDVGEEMDEAVDEEVNKIVEQYTNEKFSQLQSTPQNLVSNAPIAETAMGIPEPIGAGSEFHGNPDDDLQARLNTLKKQT
modifications: Cys92 activated as a mixed disulfide with DTNB
